The results in this text go back to patent US7655453B2, “Recombinant Candida rugosa lipases” (Academia Sinica, priority 2001, dated 2010).

Substrate in this data set: CCCCC/C=C\C/C=C\CCCCCCCC(=O)O[C@H]1CC[C@@]2(C)C(=CC[C@H]3[C@@H]4CC[C@H]([C@H](C)CCCC(C)C)[C@@]4(C)CC[C@@H]32)C1
Nature of the data set: purified protein, by the assay type. It counts as biochemical, Candida rugosa. The conditions noted are these: other: 37° C., pH 7.0, Trx-LIP4 29 nM, average of three independent experiments. The text has this: Construction of expression vectors The E. coli expression vectors pET23a-LIP4-S19 and pET23a-trx-LIP4-S19 were constructed as described in Tang et al. (2000) Protein Exp. Purif. 20: 308-313. Open-reading frames of LIP1, LIP2, LIP3, and LIP5 without the leader sequence were obtained by reverse transcription-polymerase chain reaction (RT-PCR). See Longhi et al. (1992) Biochim. Biophy. […] The chimeric DNA sequences were constructed by replacing the SphI(184)-BstXI(304) restriction DNA fragment of LIP4 with the corresponding fragments of LIP1, LIP2, LIP3, or LIP5, respectively. The resulting sequences encode mature chimeric C. rugosa lipases, denoted as TrX-LIP4/lid1, TrX-LIP4/lid2, TrX-LIP4/lid3, and TrX-LIP4/lid5, and were confirmed by DNA sequencing.
Preparation of recombinant LIP4 from E. coli. E. coli strain AD494(DE3) (Novagen, Milwaukee, Wis.) harboring recombinant plasmid was grown overnight at 37° C. in Luria-Bertani (LB) broth supplemented with 50 μg/mL ampicillin and 15 μg/mL kanamycin. The cells were then diluted 20-fold into fresh medium and incubated with shaking at 25° C. After adding IPTG to give a final concentration of 0.05 mM, the cells were incubated at 10° C. until OD600 reached 1.0.
Purification of recombinant LIP4. After induction, the AD494(DE3) transformants were harvested by centrifugation at 4000 g and 4° C. for 10 min. The cell pellet was resuspended in TE buffer (20 mM Tris-HCl and 2.5 mM EDTA, pH 8.0). The cells were disrupted with a sonicator, and the soluble fractions of the cell lysates were then collected by centrifugation at 15,000 g at 4° C. for 30 min. The soluble fractions were concentrated by ultrafiltration on a 10,000 molecular weight cut-off membrane. These samples were then applied onto a DEAE-Sepharose CL-6B (Pharmacia Biotech) column equilibrated with TE buffer. Recombinant lipases were eluted using a linear gradient of 0 to 100 mM (NH4)2SO4 over 5 column volumes.
The eluted proteins were then applied to a Butyl-Sepharose 4 Fast Flow (Pharmacia Biotech) hydrophobic interaction column. The column was washed with 5 bed volumes of TE buffer plus 1 mM and then 4 mM CHAPS. Bound proteins were then eluted with 5 bed volumes of TE buffer containing 30 mM CHAPS. The eluted samples were dialyzed against TE buffer and stored in a storage buffer (60 mM KCl, 10 mM Tris-HCl, 1.25 mM EDTA, 1% Triton X-100, and 17% glycerol, pH 7.5) at −20° C. Protein concentrations in the fractions were measured with the Bio-Rad assay kit, and esterase activity was determined using p-nitrophenyl butyrate as a substrate. The molecular masses of the purified recombinant lipases and a commercial lipase (Lipase Type VII, Sigma L1754) were determined by SDS-PAGE analysis. […]

B1: Candida rugosa lipase 4 (LIP4), recombinant, E. coli thioredoxin fused to the N-terminal (Trx-LIP4) (Diutina rugosa) (protein)
chain: SMNSRGPAGRLGSVPTATLANGDTITGLNAIINEAFLGIPFAQPPVGNLRFKPPVPYSASLNGQKFTSYGPSCMQMNPLGNWDSSLPKAAINSLMQSKLFQAVLPNGEDCLTINVVRPSGTKPGANLPVMVWIFGGGFEVGGSSLFPPAQMITASVLMGKPIIHVSMNYRVASWGFLAGPDIKAEGSGNAGLHDQRLGLQWVADNIAGFGGDPSKVTIFGESAGSMSVMCQLLWNDGDNTYNGKPLFRAAIMQSGAMVPSDPVDGPYGTQIYDQVVASAGCGSASDKLACLRSISNDKLFQATSDTPGALAYPSLRLSFLPRPDGTFITDDMFKLVRDGKCANVPVIIGDQNDEGTVFALSSLNVTTDAQARQYFKESFIHASDAEIDTLMAAYPSDITQGSPFDTGIFNAITPQFKRIAAVLGDLAFTLPRRYFLNHFQGGTKYSFLSKQLSGLPVIGTHHANDIVWQDFLVSHSSAVYNNAFIAFANDLDPNKAGLLVNWPKYTSSSQSGNNLLQINALGLYTGKDNFRTAGYDALFTNPSSFFV
The Vmax is the rate approached at saturating substrate. Usually kcat stands for the number of substrate molecules converted per active site and unit of time at saturation. A word on the kcat/Km: it is the second-order rate constant that governs catalysis at low substrate concentration. B1: the Km is on record as 104 ± 10 10^−3 mM, the Vmax was determined as 2.9 µmol/min/mg, the kcat was 3.37 ± 0.135 s⁻¹ and the kcat/Km was determined as 32300 ± 2320 M⁻¹ s⁻¹.
